Experimental findings from patent US20050234225A1 are described below.

Test [1] deals with KDR-alkaline phosphatase (AP) soluble fusion protein (human) (UniProt P35968). As to the kind of experiment: competitive blocking ELISA: antibody pre-incubated with KDR-AP, then binding of KDR-AP to immobilised VEGF165, A405. (In general: An ELISA detects its analyte on a solid surface through an enzyme-linked reagent.)
The target is the same in test [2]. As to the kind of experiment: BIAcore SPR, KDR immobilized.
Test [3] has as its target cell-surface KDR (human) (UniProt P35968). Kind of test: cell-based or functional assay.

Chain of KDR-alkaline phosphatase (AP) soluble fusion protein (human) (P35968 20-764): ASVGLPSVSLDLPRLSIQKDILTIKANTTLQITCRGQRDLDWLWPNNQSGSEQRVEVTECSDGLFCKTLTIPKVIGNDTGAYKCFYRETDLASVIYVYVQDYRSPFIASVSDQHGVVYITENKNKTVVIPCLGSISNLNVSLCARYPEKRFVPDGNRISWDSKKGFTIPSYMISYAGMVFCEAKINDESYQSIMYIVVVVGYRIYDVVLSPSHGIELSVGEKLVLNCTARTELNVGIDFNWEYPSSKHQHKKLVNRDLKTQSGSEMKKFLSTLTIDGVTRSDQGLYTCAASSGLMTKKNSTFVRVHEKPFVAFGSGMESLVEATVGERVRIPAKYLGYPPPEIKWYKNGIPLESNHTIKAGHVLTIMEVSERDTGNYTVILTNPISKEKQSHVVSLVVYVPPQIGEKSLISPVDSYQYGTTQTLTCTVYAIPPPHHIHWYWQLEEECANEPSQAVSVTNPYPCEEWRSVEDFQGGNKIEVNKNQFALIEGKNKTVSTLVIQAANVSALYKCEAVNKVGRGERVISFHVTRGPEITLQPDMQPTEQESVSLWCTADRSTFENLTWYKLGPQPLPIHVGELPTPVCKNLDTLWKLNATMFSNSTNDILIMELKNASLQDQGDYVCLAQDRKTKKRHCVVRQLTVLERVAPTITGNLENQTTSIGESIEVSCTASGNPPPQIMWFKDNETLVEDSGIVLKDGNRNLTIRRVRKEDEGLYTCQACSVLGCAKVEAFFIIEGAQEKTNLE
Chain of cell-surface KDR (human) (P35968 20-1356): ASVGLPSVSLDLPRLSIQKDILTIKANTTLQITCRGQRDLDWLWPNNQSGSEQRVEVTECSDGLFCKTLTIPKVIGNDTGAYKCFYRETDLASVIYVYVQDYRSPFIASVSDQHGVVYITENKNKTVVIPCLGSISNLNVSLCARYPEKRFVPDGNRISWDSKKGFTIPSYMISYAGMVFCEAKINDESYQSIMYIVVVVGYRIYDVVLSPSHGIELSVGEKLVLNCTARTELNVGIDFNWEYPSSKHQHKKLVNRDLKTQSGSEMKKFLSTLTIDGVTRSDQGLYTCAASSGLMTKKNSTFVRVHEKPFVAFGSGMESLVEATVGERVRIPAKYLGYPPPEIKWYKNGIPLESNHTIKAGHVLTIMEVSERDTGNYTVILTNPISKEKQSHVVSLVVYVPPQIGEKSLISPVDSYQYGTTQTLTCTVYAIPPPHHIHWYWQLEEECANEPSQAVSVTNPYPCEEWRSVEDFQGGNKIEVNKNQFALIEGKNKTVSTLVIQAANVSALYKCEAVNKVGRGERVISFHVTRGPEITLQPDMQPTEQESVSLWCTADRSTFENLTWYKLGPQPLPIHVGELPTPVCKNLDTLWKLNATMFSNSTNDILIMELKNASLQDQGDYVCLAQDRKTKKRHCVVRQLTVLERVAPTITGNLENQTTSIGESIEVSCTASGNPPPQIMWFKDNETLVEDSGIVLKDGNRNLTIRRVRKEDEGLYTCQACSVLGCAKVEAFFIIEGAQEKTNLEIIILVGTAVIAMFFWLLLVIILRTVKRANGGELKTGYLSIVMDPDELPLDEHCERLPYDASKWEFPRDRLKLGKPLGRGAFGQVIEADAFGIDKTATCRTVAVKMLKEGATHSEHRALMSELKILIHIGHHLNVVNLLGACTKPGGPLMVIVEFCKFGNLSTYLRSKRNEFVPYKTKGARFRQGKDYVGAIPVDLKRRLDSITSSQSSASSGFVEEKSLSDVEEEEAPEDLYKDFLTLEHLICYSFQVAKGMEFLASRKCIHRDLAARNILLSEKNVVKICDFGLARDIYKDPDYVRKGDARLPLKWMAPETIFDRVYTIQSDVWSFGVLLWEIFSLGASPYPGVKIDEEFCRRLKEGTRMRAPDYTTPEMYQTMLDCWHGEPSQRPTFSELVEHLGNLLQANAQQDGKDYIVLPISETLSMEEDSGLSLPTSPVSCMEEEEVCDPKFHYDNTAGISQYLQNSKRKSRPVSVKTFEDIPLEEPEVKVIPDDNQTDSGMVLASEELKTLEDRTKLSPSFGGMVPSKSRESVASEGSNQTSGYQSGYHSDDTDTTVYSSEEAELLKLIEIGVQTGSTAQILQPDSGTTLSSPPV

For the substance IMC-1C11 (antibody), the IC50 (read off the curve) in test [1] stood at 1 nM. In test [2], the Kd came out at 0.27 nM, the fold change of Kd against its Fab counterpart stood at 5 fold, the koff is 3.7e-05 s⁻¹ and the kon came out at 134000 M⁻¹ s⁻¹. Also, in test [3], the ED50 of inhibition of VEGF-stimulated [3H]-TdR incorporation in HUVEC is 1.5 nM.

What is called Kd is a measure of binding affinity in units of concentration. As usually defined, the koff is the rate constant with which the complex falls apart. A lower koff goes with a long-lived complex. One may read the kon as a measure of how fast the partners come together. High values mean fast association, low ones slow association.
